Test [1] concerns the target T1, recombinant human CD73 protein (human, UniProt P21589 27-547).
T1 construct: Bought soluble protein; The background says that CD73 forms a homodimer; also called soluble CD73; free CD73 protein
T1 sequence (looked up): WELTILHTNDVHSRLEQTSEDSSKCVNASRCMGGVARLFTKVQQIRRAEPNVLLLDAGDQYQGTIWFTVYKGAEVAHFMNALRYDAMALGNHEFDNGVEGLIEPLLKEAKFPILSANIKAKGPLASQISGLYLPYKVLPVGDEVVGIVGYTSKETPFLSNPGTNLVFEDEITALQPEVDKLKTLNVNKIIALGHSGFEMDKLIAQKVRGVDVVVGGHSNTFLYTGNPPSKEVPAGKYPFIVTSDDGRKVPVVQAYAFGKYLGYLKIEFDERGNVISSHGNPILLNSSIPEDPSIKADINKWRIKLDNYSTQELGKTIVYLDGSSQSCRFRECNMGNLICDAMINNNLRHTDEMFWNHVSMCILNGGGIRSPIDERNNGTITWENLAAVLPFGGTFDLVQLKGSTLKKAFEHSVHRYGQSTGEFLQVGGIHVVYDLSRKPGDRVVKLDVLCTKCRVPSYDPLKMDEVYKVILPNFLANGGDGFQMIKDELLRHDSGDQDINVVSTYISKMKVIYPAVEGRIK
Briefly: ELISA, plate coated with recombinant CD73 protein at 1 µg/mL. The method, then:
The affinity of the humanized antibodies to the recombinant CD73 protein was determined using an ELISA method. A elisa plate was coated with the CD73 protein at a concentration of 1 μg/mL. 5-fold gradient dilutions (0-66.7 nM) of the test antibodies were added.

In test [2] the target is T2, cynomolgus monkey full-length CD73 on CHO-K1 cells (cynomolgus monkey, UniProt A0A2K5V5U7 27-549).
T2 construct: whole, on cells; also called monkey CD73 protein expressed on cells; cynomolgus monkey CD73 on cell surface
T2 sequence: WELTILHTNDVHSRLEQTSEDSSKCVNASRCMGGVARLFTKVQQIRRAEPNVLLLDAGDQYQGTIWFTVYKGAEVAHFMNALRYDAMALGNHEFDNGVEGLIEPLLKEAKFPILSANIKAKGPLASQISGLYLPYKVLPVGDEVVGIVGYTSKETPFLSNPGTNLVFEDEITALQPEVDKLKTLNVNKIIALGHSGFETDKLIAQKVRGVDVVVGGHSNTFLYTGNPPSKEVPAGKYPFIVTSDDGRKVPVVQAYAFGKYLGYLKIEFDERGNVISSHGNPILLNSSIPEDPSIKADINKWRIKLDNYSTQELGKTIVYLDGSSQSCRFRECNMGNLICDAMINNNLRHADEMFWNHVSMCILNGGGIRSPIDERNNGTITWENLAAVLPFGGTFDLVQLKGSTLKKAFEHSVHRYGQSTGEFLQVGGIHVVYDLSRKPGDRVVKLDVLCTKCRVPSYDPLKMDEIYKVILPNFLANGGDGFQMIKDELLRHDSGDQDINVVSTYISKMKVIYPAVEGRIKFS
As to the kind of experiment: flow cytometry on CHO-K1 cells expressing monkey full-length CD73. On the procedure: In order to characterize the ability of the humanized antibodies prepared in the present application to recognize the cynomolgus monkey CD73 molecule on the cell membrane, CHO-K1 cells capable of stably expressing monkey full-length CD73 were constructed. The cells were seeded in a 96-well plate at a density of 2×10⁶ cells/mL, with 100 μL per well. The plate was washed three times with a PBS buffer, and the supernatant was discarded. The antibodies diluted in a gradient with a PBS buffer were added, and the mixture was incubated at 4° C. for 1 h. The cells were washed 3 times with a PBS buffer, followed by labeling with Alexa Fluor 488-labeled goat anti-human IgG antibody at 4° C. in the dark for 50 min. The cells were then washed 3 times with a PBS buffer, and the fluorescence intensity of the cells was read by a flow cytometer.
As shown in the results in FIG. 5 and Table 10, the prepared humanized antibodies could bind to the monkey CD73 protein expressed on cells in a dose-dependent manner.
In general terms: A flow cytometer gives signals particle by particle.

The target in test [3] is T3, cynomolgus monkey CD73 protein (cynomolgus monkey, UniProt A0A2K5V5U7 27-547).
T3 construct: construct not described
T3 sequence: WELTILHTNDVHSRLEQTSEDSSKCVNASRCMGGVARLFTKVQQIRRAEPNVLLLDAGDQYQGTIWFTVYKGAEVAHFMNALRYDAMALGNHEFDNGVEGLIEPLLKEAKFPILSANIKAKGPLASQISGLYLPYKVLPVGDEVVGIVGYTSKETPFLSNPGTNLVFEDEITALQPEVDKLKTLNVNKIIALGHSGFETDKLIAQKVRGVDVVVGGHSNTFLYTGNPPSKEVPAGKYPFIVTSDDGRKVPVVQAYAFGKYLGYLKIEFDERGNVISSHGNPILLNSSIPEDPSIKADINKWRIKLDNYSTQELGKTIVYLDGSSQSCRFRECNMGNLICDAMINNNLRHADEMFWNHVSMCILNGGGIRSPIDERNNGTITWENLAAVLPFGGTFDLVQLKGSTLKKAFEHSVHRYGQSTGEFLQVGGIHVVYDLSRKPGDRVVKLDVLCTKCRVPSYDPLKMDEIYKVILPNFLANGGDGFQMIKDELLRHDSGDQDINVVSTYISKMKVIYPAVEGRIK
Briefly: BLI (Fortebio), cynomolgus CD73 on HIS1K biosensors, antibody as analyte. The method, then:
In this example, the cross-binding ability of the exemplary humanized anti-CD73 antibodies of the present application to cynomolgus monkey CD73 was assayed by a Fortebio experiment. The specific implementation steps included immobilizing the cynomolgus monkey CD73 protein onto HIS1K biosensors. […] The times for the ligand-analyte binding and dissociation were 120 s and 300 s, respectively. The data of the antigen-antibody affinity were calculated by regression according to the binding curves using an analysis software.
For orientation: BLI is a label-free optical method that tracks binding on a fibre tip over time.

The source of these data is patent US20260152567A1 (CSPC MEGALITH BIOPHARMACEUTICAL, published 2026).

B1: Hab7C3C2.5 (antibody, human IgG1, kappa, L234A L235A, V domains shown)
VH: QVQLVQSGAEVKKPGASVKVSCKASGYTFTSYDINWVRQATGQGLEWIGWIYPRDGFTKYNEKFKGRVTLTVNTSISTAYMELSSLRSEDTAVYYCARKEGYRGDWYFDVWGQGTTVTVSS
VL: DIQMTQSPSSLSASVGDRVTITCRASGNVHNYLAWYQQKPGKAPKLLLYNAKTLASGVPSRFSGSGSGTDYTLTISSLQPEDFATYYCQHFWSTPWTFGGGTELEIKR
notes: Humanized 7C3C2; also called Hab7C3C.5
Usually EC50 stands for the concentration needed to bring the measured effect to its halfway point. Broadly, the Kd is the equilibrium constant for the complex coming apart. A word on the koff: it is the rate constant with which the complex falls apart. Broadly, the kon is a measure of how fast the partners come together. For B1, in test [1], the EC50 stood at 0.013 nM. In test [2], this molecule came in with an EC50 of 11.3 nM. Besides, in test [3], binding was characterised by a dissociation constant (Kd) of 0.732 nM, the koff amounted to 0.00299 s⁻¹ and the kon is 4.08e+06 M⁻¹ s⁻¹.

B2: Hab1F2F9.15 (antibody, human IgG1, kappa, L234A L235A, V domains shown)
VH: QVQLVQSGAEVKKPGASVKVSCKASGYTFTSYWMHWVRQAPGQRLEWMGNINPSNGGTKYSQKFQGRVTITVDTSASTAYMELSSLRSEDTAVYYCARRDYGSPSYWGQGTTVTVSS
VL: DIQMTQSPSSLSASVGDRVTITCKASQDINSYLTWFQQKPGKAPKSLIYRTNILLDGVPSRFSGSGSGTDYTLTISSLQPEDFATYYCLQYHEFPVTFGGGTKLEIKR
notes: Humanized 1F2F9; also called Huab1F2F9.15; HuablF2F9.15
Regarding B2, the EC50 in test [1] was determined as 0.011 nM. Besides, the concentration giving a half-maximal response (EC50) in test [2] is 1.51 nM. In test [3], the Kd was found to be 0.814 nM, the koff was found to be 0.0017 s⁻¹ and the kon worked out at 2.09e+06 M⁻¹ s⁻¹.
